From US7223734B2, “Plasma protein-binding ligands” (The American National Red Cross, priority 2002, dated 2007)
Non-standard residues stand in square brackets, D forms with d. No end group written: not given here. 2Nal = N[C@@H](Cc1ccc2ccccc2c1)C(=O)O

Columns and labels:
paraoxonase = conditions: resin bead suspension
Description: Paraoxonase binding to a WWLHAN (SEQ ID NO: 56)-displaying resin was evaluated according to the following protocol. Rabbit serum diluted 1/10 times with PBS ([…]) was incubated in a rotating Eppendorf tube with 50 μl of D-WWLHAN (SEQ ID NO: 56)-displaying resin suspension containing approximately […] of resin. The resin was previously soaked in 20% methanol overnight and washed 3 times with PBS to remove the methanol traces and resuspended in paraoxonase assay buffer (20 mM Tris pH 8.0, 150 mM NaCl, and 2 mM CaCl2). After 1 hour incubation at 37° C., resin beads were precipitated by centrifugation at 8000 g for 1 min in an Eppendorf microcentrifuge. Supernatants were transferred into separate Eppendorf tubes and resin bead pellets were resuspended in equal volumes of paraoxonase assay buffer. Paraoxonase activity of resin bead suspensions and supernatant solutions was measured. In particular, 100 μl of paraoxonase assay buffer containing 100 μm of DEPFMU (a fluorogenic substrate for paraoxonase detection) was mixed with […] of supernatant or 10 μl of resin bead suspension, or the original serum solution in a standard microtiter plate well. After thorough mixing, the plate solution was incubated for 20 minutes at 37° C. Hydrolysis of DEPFMU was quantified by measuring the fluorescence level at […] using a commercial fluorometer. The level of fluorescence correlates with the level of 6,8-difluoro-4-methylumbelliferyl released from DEPFMU as a result of paraoxonase-mediated hydrolysis. The actual amount of 6,8-difluoro-4-methylumbelliferyl released in the assay can be calibrated with a known amount of 6,8-difluoro-4-methylumbelliferyl.
Several different D-WWLHIN (SEQ ID NO: 33) analogs were screened for the ability to bind to paraoxonase under the conditions described in Example 7. For this experiment, the following resins were tested: WWLHAN (SEQ ID NO: 56), AWLHIN (SEQ ID NO: 59), WALHIN (SEQ ID NO: 60), WWAHIN (SEQ ID NO: 61), WWLHIA (SEQ ID NO: 63), WYLHIN (SEQ ID NO: 35), WWLFIN (SEQ ID NO: 36), and na1′WLHIN (SEQ ID NO: 40).

vWF/fVIII [1] = target: T1, vWF/fVIII (Homo sapiens, UniProt P04275); test: Primary screening of 6-mer library for vWF/fVIII ligands; type: binding; design: from tissue; host or cells: human plasma (first round also purified vWF of unstated origin); conditions: bead screening, immunodetection
Description: The ToyoPearl 650-M amino resin displaying the library of D- or L-hexamers ([…]) was incubated either with plasma or purified vWF in TBS buffer or EQ buffer. The captured proteins were subsequently eluted stepwise from the resin beads with sodium chloride (0.5 M, 1.0 M, 2.0 M) and guanidine (2–6 M). The target proteins were detected immunologically after transfer onto a PVDF membrane. One of three detection strategies was employed to detect target protein binding. A one-step immunodetection assay using a specific HRP-conjugated polyclonal sheep anti-human vWF antibody was performed. A differential-subtractive immuno-detection assay entailed detecting proteins transferred onto membranes with specific HRP-conjugated polyclonal sheep anti-human vWF antibody in 1:10,000 dilution (AHP062P; Serotec) followed by exposure to chemiluminescence substrate ECLPlus. Membranes were stripped and re-probed with rabbit anti-human albumin antibody (No. A0433, Lot No. 031K4897 from Sigma) followed by secondary alkaline phosphatase-labeled goat anti rabbit antibody (Tropix). Following film development, films were aligned and dots that appeared on films for vWF and on albumin films were deemed background signal. Dots positive for vWF but not for albumin were considered positive. A detection assay using radio-labeled antibody also was performed. Freshly I125-radiolabeled monoclonal anti-human vWF antibody, 101.104 (VWFAE; Enzyme Research) in dilution 1:250 in hSA-Hepes-0.14 M NaCl-Tween buffer was used for detection. After washing, membranes were exposed to Kodak films for 48 hrs at −80° C. Positive beads were picked and prepared for re-probing.
All beads collected from several gels were pooled in the same tube, washed with water and incubated in 8 M Guanidine to remove remaining proteins before re-probing. After extensive washing with water and citrate buffer, the resin beads were blocked with 3% human albumin for 2 hours and incubated with human plasma. Resin beads were immobilized in agarose gels (6 cm×7 cm) and target protein was transferred to a PVDF membrane in 2 M NaCl for 20 hours. Membranes were blocked, incubated with 101.104 anti-vWF antibody, and detected with secondary goat/anti-mouse-HRP. In some experiments, sheep anti-human vWF antibody conjugated with HRP was used for detection. Positive beads were picked, washed, and the attached ligands were sequenced.
For some re-probing experiments, resin beads linked to target proteins were visualized by adding specific antibody and color substrate to facilitate further alignment. Detection of a target protein bound to the resin beads by non-labeled monoclonal antibody 101.104 anti-vWF was used followed by goat/anti-mouse antibody conjugated with alkaline phophatase and FastRed prior to immobilizing beads in the agarose gel. Additional substrate CDPStar was applied directly onto a gel with immobilized beads, and the gel was exposed to a Kodak film. Dark spots on the film were correlated with red spots on the gel to ensure appropriate alignment. The proteins from resin beads immobilized in the gel were transferred onto a membrane and developed again with radiolabeled monoclonal antibody against vWF. The films and gel were aligned, and resin beads that appeared positive in all stages were picked, washed, and attached ligands sequenced.

vWF/fVIII [2] = target: T1, vWF/fVIII; test: Removal of vWF/fVIII from plasma on D-EADna2′ED resin, fVIII chromogenic assay (Example 11); type: binding; design: from tissue; host or cells: pooled human plasma; conditions: for FVIII / Total FVIII: Chromogenic Assay
Description: (§1) Pooled human plasma (20 ml) was added to 0.8 ml of resin and incubated for 30 minutes while gently rotating. Resin was settled under gravity or by short gentle centrifugation, and the supernatant was collected (the equivalent of “flow-through” of the previous examples). The resin was then packed into an Omni column and the chromatography was completed using the ÄKTAExplorer system. The flow rate was kept constant at 0.4 ml/min (LV=31 cm/h; retention time=2 minutes). After washing of the resin with EQ buffer to baseline, the bound proteins were eluted from the resin with 10 column volumes (CV) of 0.5 M NaCl, followed by 10 CVs of 0.75 M NaCl, 1.0 M NaCl/1% Tween (all in 0.02 M sodium citrate, pH 7.0) and 2.0 M guanidine. Twenty-five microliters of 0.4 M calcium chloride was added to each fraction collected, and the fractions were evaluated by OD reading and Western Blots for vWF and fVIII antigen. The fVIII activity of pooled fractions was determined by chromogenic and coagulation assays.

vWF/fVIII [3] = target: T1, vWF/fVIII; test: Removal of vWF/fVIII from plasma on D-EADna2′ED resin, fVIII coagulation assay (Example 11); type: binding; design: from tissue; host or cells: pooled human plasma
Description: as §1

API = target: T2, API (Homo sapiens, UniProt P01009); test: Primary screening of 6-mer library for API-binding ligands; conditions: bead screening, immunodetection / radiolabel
T2 construct: from tissue; host or cells: human plasma (whole, fibrinogen-depleted or F1-Apo-depleted)
Description: Peptide libraries attached to Toyopearl-AF Amino 650M resin or Tentagel resin were evaluated with 14C-labeled fibrinogen and API. All steps were performed at room temperature. Specifically, 20 mg of Toyopearl resin beads or 40 mg of Tentagel resin beads were suspended in 20% methanol for a minimum of 2 hours in 15 ml conical polypropylene tubes (Corning). After rinsing with distilled water, the resin beads were equilibrated in 0.15 M NaCl, 0.020 M sodium citrate, pH 7.3. The resin beads were then blocked for 2 hours with 1% casein (Sigma) in 0.15M NaCl, 0.020M sodium citrate, pH 7.3. Following blocking, the resin beads were centrifuged and the supernatant removed. A solution containing 1 mM of C^14-labeled fibrinogen or 30 μM of C^14-labeled API was applied to the resin beads in the blocking solution in the presence of 0.1% Tween-20 (Sigma). The materials were incubated for 2 hours. The resin beads were washed with 0.15 M NaCl, 0.020 M sodium citrate, 0.05% Tween-20, pH 7.3, in a batch method (fibrinogen ligands) or in disposable BioRad 10 ml columns (API ligands) until radiation counts reached the background level of less than 40 DPM. The resin beads were divided into separate tubes to obtain approximately 5–10 mg of resin beads per sheet. This was accomplished by mixing each aliquot of resin beads with 20–22 ml of 1% low melting agarose solution (Sigma) at less than 40° C., and rapidly pouring the mixture onto GelBond® film sheets (BMA Cat. No. 53749, 16×18 cm; Cat. No. 53759, 12.5×24.5 cm). Spreading of the resin beads to the edge of the gel sheets was prevented by creating frames (about 23 cm×about 10 cm or about 15 cm×about 15 cm) with several layers of masking tape. About 20–22 ml of resin bead-agarose mixture was plated on each GelBond sheet. Special care was taken to spread the beads in an even monolayer to facilitate identification and isolation of individual “hot” beads. The agarose gel was then air-dried overnight and placed, bead side down, on X-ray film (Kodak Biomax MR). The agarose and autoradiography film were exposed for 4–14 days followed by a second exposure of 7 days in an about 20 cm×about 25 cm stainless steel cassette. Afterwards, the films were taped together and marked with several staple holes to ensure proper alignment of beads in agarose to film. After the films were developed, the positive beads that appeared on both films were identified under the microscope and picked by aligning the developed film(s) and agarose gel via the staple holes. Beads to be sequenced were carefully picked by cutting a square trench around the bead with a scalpel, and hydrating this area with distilled water. […]

T2 sequence (P01009 25-418): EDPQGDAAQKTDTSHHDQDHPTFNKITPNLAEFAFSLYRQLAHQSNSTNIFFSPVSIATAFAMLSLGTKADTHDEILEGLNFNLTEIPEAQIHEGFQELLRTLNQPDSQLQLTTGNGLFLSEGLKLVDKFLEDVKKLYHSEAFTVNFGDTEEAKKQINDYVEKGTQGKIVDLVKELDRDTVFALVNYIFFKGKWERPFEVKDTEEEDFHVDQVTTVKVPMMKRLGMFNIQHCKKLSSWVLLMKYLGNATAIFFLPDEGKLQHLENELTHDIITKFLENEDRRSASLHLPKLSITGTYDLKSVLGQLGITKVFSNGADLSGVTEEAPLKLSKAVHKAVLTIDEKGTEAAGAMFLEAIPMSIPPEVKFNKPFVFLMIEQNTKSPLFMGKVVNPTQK

WWLFIN [D-WWLFIN]
paraoxonase activity of bead fractions (paraoxonase): Significant activity

QWFPEK
identified as vWF/fVIII binding peptide from the 6-mer library (vWF/fVIII [1]): vWF/fVIII binding

LEDna2′EE (LED[2Nal]EE)
identified as vWF/fVIII binding peptide from the 6-mer library (vWF/fVIII [1]): vWF/fVIII binding

WWAHIN [D-WWAHIN]
paraoxonase activity of bead fractions (paraoxonase): Significant activity

YHLGWL
identified as vWF/fVIII binding peptide from the 6-mer library (vWF/fVIII [1]): vWF/fVIII binding

WALHIN [D-WALHIN]
paraoxonase activity of bead fractions (paraoxonase): Significant activity

YLHYQT
identified as vWF/fVIII binding peptide from the 6-mer library (vWF/fVIII [1]): vWF/fVIII binding

EADna2′ED (EAD[2Nal]ED; not fully specified; also: D-amino acids, positions not given here) [D-EADna2′ED]
FVIII (vWF/fVIII [2]; Elution 1 (0.75 M NaCl)): 0.46 IU/ml
Total FVIII (vWF/fVIII [2]; Elution 1 (0.75 M NaCl)): 4.6 IU
FVIII (vWF/fVIII [2]; Elution 2 (1.0 M NaCl)): 0 IU/ml
Total FVIII (vWF/fVIII [2]; Elution 2 (1.0 M NaCl)): 0 IU
Total FVIII (vWF/fVIII [2]; Flow-Through, load 21.4 IU): 1.6 IU
FVIII (vWF/fVIII [2]; Flow-Through, plasma load 20 ml, 1.07 IU/ml): 0.08 IU/ml
FVIII (vWF/fVIII [2]; Wash (0.5 M NaCl)): 0.12 IU/ml
Total FVIII (vWF/fVIII [2]; Wash (0.5 M NaCl)): 1.2 IU
binding of vWF/fVIII by the resin (vWF/fVIII [2]; plasma, fVIII activity and Western Blot for vWF): binds vWF/fVIII
FVIII (vWF/fVIII [3]; Elution 1 (0.75 M NaCl)): 0.39 IU/ml
Total FVIII (vWF/fVIII [3]; Elution 1 (0.75 M NaCl)): 3.9 IU
FVIII (vWF/fVIII [3]; Elution 2 (1.0 M NaCl)): 0 IU/ml
Total FVIII (vWF/fVIII [3]; Elution 2 (1.0 M NaCl)): 0 IU
Total FVIII (vWF/fVIII [3]; Flow-Through, load 8.46 IU): 1.6 IU
FVIII (vWF/fVIII [3]; Flow-Through, plasma load 0.423 IU/ml): 0.08 IU/ml
FVIII (vWF/fVIII [3]; Wash (0.5 M NaCl)): 0 IU/ml
Total FVIII (vWF/fVIII [3]; Wash (0.5 M NaCl)): 0 IU
identified as vWF/fVIII binding peptide from the 6-mer library (vWF/fVIII [1]): vWF/fVIII binding

YVDEDD
identified as vWF/fVIII binding peptide from the 6-mer library (vWF/fVIII [1]): vWF/fVIII binding

HFDLHR
identified as API-binding peptide ligand from the 6-mer library (API): API-binding

EDSWDV
identified as vWF/fVIII binding peptide from the 6-mer library (vWF/fVIII [1]): vWF/fVIII binding
